Test results reported in doi:10.1101/2021.07.23.453469 (bioRxiv, 2021).

Target: T1, outer-capsid protein σ3 on T3SA- virions (reovirus strain T1L, UniProt P07939 1-365)
T1 sequence (looked up): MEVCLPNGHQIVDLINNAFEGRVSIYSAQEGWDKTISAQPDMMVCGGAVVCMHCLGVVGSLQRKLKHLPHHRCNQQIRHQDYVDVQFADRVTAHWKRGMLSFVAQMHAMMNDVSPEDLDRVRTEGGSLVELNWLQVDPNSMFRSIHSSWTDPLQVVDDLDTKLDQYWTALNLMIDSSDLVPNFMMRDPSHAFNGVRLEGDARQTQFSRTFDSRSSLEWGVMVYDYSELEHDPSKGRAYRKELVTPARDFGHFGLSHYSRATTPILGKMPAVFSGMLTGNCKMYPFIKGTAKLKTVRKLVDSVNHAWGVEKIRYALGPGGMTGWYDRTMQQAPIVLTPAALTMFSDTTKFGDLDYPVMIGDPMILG
Assay: cryo-EM structure

B1: NgR1-His (domain or fragment, human, UniProt Q9BZR6 27-310, looked up)
chain: CPGACVCYNEPKVTTSCPQQGLQAVPVGIPAASQRIFLHGNRISHVPAASFRACRNLTILWLHSNVLARIDAAAFTGLALLEQLDLSDNAQLRSVDPATFHGLGRLHTLHLDRCGLQELGPGLFRGLAALQYLYLQDNALQALPDDTFRDLGNLTHLFLHGNRISSVPERAFRGLHSLDRLLLHQNRVAHVHPHAFRDLGRLMTLYLFANNLSALPTEALAPLRALQYLRLNDNPWVCDCRARPLWAWLQKFRGSSSEVPCSLPQRLAGRDLKRLAANDLQGCA
binding result: binds
